T1: 33mer peptide (LQLQPFPQPQLPYPQPQLPYPQPQLPYPQPQPF)
T1 chain: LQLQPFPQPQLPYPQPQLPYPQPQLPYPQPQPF

T2: Glia_56-79 peptide (LQLQPFPQPQLPYPQPQLPY)
T2 chain: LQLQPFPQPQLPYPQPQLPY

T3: fluorescent analogue of gliadin, hexapeptide QPQLPY conjugated to a fluorophore and a quencher
T3 chain: QPQLPY

T4: α2-gliadin peptide (PQPQLPYSQPQPFR)
T4 chain: PQPQLPYSQPQPFR

T5: α9-gliadin peptide (QLQPFPQPQLPY)
T5 chain: QLQPFPQPQLPY

T6: γ-gliadin peptide (IQPQQPAQL)
T6 chain: IQPQQPAQL

T7: fluorescently quenched α-gliadin hexapeptide analogue QXL520-PQPQLP-K(5-FAM)-NH2
T7 chain: PQPQLP

B1: Homologue 1 (NCBI YP_005536585) (protein)
chain: MAPSDVEIVDPVAPEERITVTVLLRRRSSIPDQLIEGPDTLSRAELADRHGADPADVEAVRVAMSGAGLTVVGTDLPSRRVTVAGTAEALMRTFGAELQIVRDASGFQHRARSGELRIPAALDGIVIAVLGLDNRPQAEARFRASQPEAARSFRPDALGRVYRFPANTDGTGQTIAIVELGGGFRQSELDTYFGGLGIPAPQVLAVGVDGGQNLPSGDAGSADGEVLLDIEVAGALAPGARQVVYFAPNTDRGFVDAVTTAVHADPTPAAVSISWGAPEDKWTAQARRAFDAALADAAALGVTVTAAAGDRGSADGEGGGGLHTDFPASSPHLLACGGTKLAVADGGTVASETVWNGGERGGATGGGVSVAFGLPAYQRNAGVDKRRKTGKPGRGVPDVAAVADPATGYEVLVDGEQLVFGGTSAVAPLWAALVARLTQALGRPLGLLNTALYDGAQPGRTQPGFRDVTEGDNDISGKHGPYPARAGWDACTGLGVPDGEALLAALRKPGKE
B2: Homologue 4 (NCBI ZP_10028298) (protein)
chain: MANHPLNGSERECLKDAQPIGKADPNERLEVTMLVRRRSHDAFEKHISALAAQGASAKHIDHDEFTKHFGADSADLAAVHAFAQKHGLSVVESHEARRAVVLSGTVAQFDAAFGVSLQQYEHDGGTYRGRTGPIHLPDELNGVVDAVMGLDNRPQARPSFRTRAQGNVRWTARAAGASTFTPVQLASLYDFPQGDGQNQCIGIIELGGGYRPADLKTYFASLNMKAPSVTAVSVDHGRNHPTGDPNGPDGEVMLDIEVAGAVAPGAKIVVYFAPNTDAGFIDAIGTAIHDTKNKPSVISISWGGPESAWTQQAMNAFDQAFQSAAALGVTICAASGDNGSGDGVGDGADHVDFPASSPYALGCGGTSLQASGNGIASETVWNDGANGGATGGGVSSFFALPAWQEGLRVTRAGGAHSPLAMRGVPDVAGNADPVTGYEVRVDGHDMVIGGTSAVAPLWAGLIARINAIKGAPVGYINPHLYKDPLALVDITKGNNDDFHATAGWDACTGLGRPDGKKVKDAVS
B3: Kumamolisin-As (wild type) (protein)
chain: MSDMEKPWKEGEEARAVLQGHARAQAPQAVDKGPVAGDERMAVTVVLRRQRAGELAAHVERQAAIAPHAREHLKREAFAASHGASLDDFAELRRFADAHGLALDRANVAAGTAVLSGPVDAINRAFGVELRHFDHPDGSYRSYLGEVTVPASIAPMIEAVLGLDTRPVARPHFRMQRRAEGGFEARSQAAAPTAYTPLDVAQAYQFPEGLDGQGQCIAIIELGGGYDEASLAQYFASLGVPAPQVVSVSVDGASNQPTGDPSGPDGEVELDIEVAGALAPGAKFAVYFAPNTDAGFLDAITTAIHDPTLKPSVVSISWGGPEDSWTSAAIAAMNRAFLDAAALGVTVLAAAGDSGSTDGEQDGLYHVDFPAASPYVLACGGTRLVASGGRIAQETVWNDGPDGGATGGGVSRIFPLPAWQEHANVPPSANPGASSGRGVPDLAGNADPATGYEVVIDGEATVIGGTSAVAPLFAALVARINQKLGKAVGYLNPTLYQLPADVFHDITEGNNDIANRAQIYQAGPGWDPCTGLGSPIGVRLLQALLPSASQPQPGSTENLYFQSGALEHHHHHH
B4: Homologue 2 (NCBI ZP_04943175) (protein)
chain: MQRGTKEGLNMARHLQADREPRIVPESKCLGQCDPAERIHVTIMLRRQEEGQLDALVHQLATGDARAKPVSRDAFAQRFSANPDDIRKTEDFAHRHQLTVDRVDPVESVVVLSGTIAQFEAAFSVKLERFEHRSIGQYRGRSGPIVLPDDIGDAVTAVLGLDSRPQARPHFRFRPPFKPARGAAAVTFTPIQLASLYDFPAGDGAGQCIAIIELGGGYRAADIQQYFRGLGITTPPKLVDVNVGTGRNAPTGEPNGPDGEVALDIEIAGAIAPAAKIAVYFAPNSDAGFIQAVNAAVTDKTNQPSVISISWGGPEAIWQAQSAQAFNRVLQAAAAQGITVCAASGDSGSGDGLQDGADHVDFPASSPYVLGCGGTQLDALPGQGIRSEVTWNDEASGGGAGGGGVSALFDLPAWQQGLKVARADGTTTPLAKRGVPDVAGDASPQTGYEVSVAGTPAVMGGTSAVAPLWAALIARINAANGASAGWINPVLYKHPGALRDITKGSNGTYAAASGWDACTGLGSPNGAQLATILARKPSS
B5: Homologue 6 (NCBI YP_003109679) (protein)
chain: MAPEERRTLPGSAMPRPAGAQVLGQIPDDERVEVTVVLQPRAPLPEPGPTPMSRAELADLRSPPEGALEAIARYVAGQGLEVIAADAPRRRIVLAGSAARIAALFGISFVRLQLEGRRYRTYEGEISLPAELAPLVVAVLGLDTRPFARSHRRPAVAPNAPTTAPTVARAYDFPTAYDGRGTTIGFIELGGGFQESDLVRYCEGLGLSTPQVSVVGVDGARNAPTGDPNGPDAEVMLDLEVATGVANGADLVLYMAANTDAAFYSAIATALRDATHAPVAISISWGAPEESYPATTIAAFESVLEEAVHVGVTVLVAAGDQGSTDGVDDGRAHVDYPAASPYVLACGGTRLDLDGTTIVAETVWNDLPNGGATGGGISALFPVPSWQAGIAMPPSANPGAGPGRGVPDVAGNADPDTGYRIVVDGVATVVGGTSAVAPLWAGLVARCHQAGARGGFWNPLLYAARGSSAFHEITVGSNGAYDAGPIWNACCGLGSPNGTAILQTLRA

Experiments:
[1] = target: T1, 33mer peptide …
[2] = target: T2, Glia_56-79 peptide …
[3] = target: T3, fluorescent analogue of gliadin, …
[4] = target: T4, α2-gliadin peptide (PQPQLPYSQPQPFR)
[5] = target: T5, α9-gliadin peptide (QLQPFPQPQLPY)
[6] = target: T6, γ-gliadin peptide (IQPQQPAQL)
[7] = target: T7, fluorescently quenched α-gliadin …

Protein	activity on peptide (percent) [1] [%]	grade and % of peptide after an 80-min incubation [2]	rate of degradation of the fluorescent hexapeptide, pH 4.0, 37° C. [3]	grade and % of peptide after an 80-min incubation [4]	grade and % of peptide after an 80-min incubation [5]	grade and % of peptide after an 80-min incubation [6]	Degradation pattern of 33mer (60 min) [1]	Fold Change in Activity of PQ Hydrolysis Relative to Wild Type Kumamolysin-As [7] [fold]	rate of degradation of the fluorescent hexapeptide, pH 4 [3]
B1	46	++; 1.6%	had activity comparable to or better than Kumamolisin under these conditions	++ (undetect)	-; 80%	++/-; 29%			
B2	38	++; 0.6%	had activity comparable to or better than Kumamolisin under these conditions	++ (undetect)	++/-; 25%;	+; 12%	WT-like		
B3	18	+++; 0.2%	Kumamolisin has some activity breaking down these gliadin substrates	++ (undetect)	++; 2%;	++/-; 39%	degrades the 33-mer down at only a single location (WT-like)	1	
B4	31	++; 0.2%	had activity comparable to or better than Kumamolisin under these conditions	++ (undetect)	++/-; 37%;	+/-; 65%			
B5		-; 85%		-; 87%	-; 114%	-; 102%			no activity was seen for this homologue in the fluorescent experiment conducted at pH 4

— patent US10487318
